Self-cleavage data for 167 variants are collected here from the RNAGym collection of RNA variant scans (doi:10.7554/elife.90254).

The labels stand for the following.
B1: OR4K15 (parent)
chain: GUUAACGGUCAUAGGCCAUGGAAACUAGGAGCACCAUUUCGCUGCCAGUGAAGAAAUGAACAAAGAAAAUCUGGGCCAGGCAGGCAUCAAAAGAAAUAGUCUUGCGCUCAACCAGAAAGUCUGUAAUCAUUUUAAGGGUA

Variants of B1 are the subject of the data set. The experiment in a line: self-cleavage, relative activity (ratio to wild type); higher = more cleavage; in vitro, sequencing; the parent is a self-cleaving ribozyme.
Take U19C A90U: the self-cleavage was 1.49.
The figure for U19A G75C is 0.16; for G21A A64U it is 1.5.
To G21A C85G belongs 0.64; to U19A U131C, 1.46.
To U19A U131G belongs 2.03.
For the variant U19A A126G, the self-cleavage turned out to be 1.38.
The figure for U19A A126C is 0.55; for G21A A135C it is 1.25; for U19G A64G it is 1.49.
The figure for A22G A69C is 0.68; for A22U A129C it is 1.58.
The figure for A22G A51G is 1.22; for U19A A114G it is 0.55; for U19A A114U it is 0.04.
With G21A A30G, the self-cleavage amounted to 1.51.
As to U19C A117U, the self-cleavage was 0.58.
To U19C A117C belongs 0.71; to A22U G123U, 1.96; to U19G A33G, 0.96.
To A22G G31A belongs 1.19.
For A22G G31U, the self-cleavage turned out to be 0.75.
In the case of U19G A67G, the self-cleavage came out at 1.1.
On to G20A A92G, for which the self-cleavage was 2.46.
In the case of G20A A92U, the self-cleavage is 0.79.
To A22G U37A belongs 2.01.
To A22G U37G belongs 0.8; to U19C U132C, 1.24; to A22C U127C, 1.48.
To A22U U39C belongs 0.34.
For the variant G20A A117G, the self-cleavage was determined as 0.65.
To U19C U108C belongs 0.02; to U19C U108A, 0.03.
The figure for G21U G65A is 1.96.
Take U19C C61U: the self-cleavage was 1.56.
To A22U U97C belongs 0.69; to G21U A62G, 1.54.
To A22G A33U belongs 1.4; to A22G A33G, 0.98.
The figure for A22C A94U is 2.06; for G20A U102A it is 0.58.
A22G A27G: the self-cleavage was 1.04.
To U19C A129U belongs 1.39.
U19C U72C: the self-cleavage was found to be 0.25.
To A22U U43C belongs 1.81; to A22U U43A, 2.1; to A22U G138U, 2.01.
Take U19C A110C: the self-cleavage was determined as 0.16.
On to U19C A110G, for which the self-cleavage came to 0.08.
G21U U87C: the self-cleavage was 1.55.
For the variant A22G A52U, the self-cleavage amounted to 1.02.
The figure for U19C G119A is 2.13.
Take A22U A68G: the self-cleavage turned out to be 0.93.
The figure for A22C U38C is 2.55; for A22G A56G it is 1.01.
The figure for U19C A98G is 0.25.
Turning to U19C A118U, the self-cleavage worked out at 0.77.
On to U19C A118C, for which the self-cleavage is 1.15.
On to G20A U49A, for which the self-cleavage came out at 1.67.
For G21A G106A, the self-cleavage worked out at 0.02.
To A22U A66G belongs 1.5; to A22G A114U, 0.08.
The figure for U19C A111G is 0.03; for U19C A125U it is 2.21.
To G21A A98U belongs 2.32.
Take A22G U139A: the self-cleavage came to 1.14.
The figure for A22G U139C is 1.24.
To U19C A22G belongs 1.12; to U19C A22U, 1.23; to A22G A129U, 0.78.
To A22G A129G belongs 0.61; to U19C A33G, 0.62; to G21A A114U, 0.05.
As for U19C A54G, the self-cleavage is 1.21.
For the variant U19C A54C, the self-cleavage was determined as 1.2.
To U19C A51G belongs 0.51; to A22G U131A, 1.53.
In the case of U19A C77U, the self-cleavage worked out at 1.25.
To G20A A69G belongs 1; to G20U U70C, 0.6; to A22G A126U, 0.92.
As to A22G A126G, the self-cleavage worked out at 0.85.
For the variant G21A U70C, the self-cleavage stood at 1.39.
The figure for U19C A126G is 1.48.
Regarding U19A C109U, the self-cleavage came to 0.16.
The figure for G21A A140G is 1.48; for G21U U37A it is 1.06.
As for G21U U102C, the self-cleavage was found to be 2.03.
As for A22G A68G, the self-cleavage was found to be 1.31.
As for A22G U100C, the self-cleavage worked out at 1.69.
As to A22G U100A, the self-cleavage turned out to be 0.54.
The figure for U19C A52U is 0.93; for U19A A140G it is 1.75; for A22U G53A it is 1.47.
As to A22U A90G, the self-cleavage is 0.91.
The figure for U19A A117G is 1.57.
For U19A A117U, the self-cleavage is 0.55.
Turning to U19C A60G, the self-cleavage worked out at 1.23.
To U19C U124C belongs 0.87; to G21A A94G, 1.81.
The figure for A22G A116U is 0.35; for A22G A125G it is 0.57; for G21A A60G it is 1.14.
The figure for A22U A30G is 1.13; for G21A A78U it is 0.86.
On to U19C C40U, for which the self-cleavage was 1.67.
To A22U A62U belongs 1.58.
As to G21U U122A, the self-cleavage is 1.42.
The figure for A22G U120A is 1.22.
To A22G U127A belongs 2.2; to A22G U127C, 0.43.
The figure for A22G U127G is 1.34; for A22U C121A it is 2.6; for A22G U39A it is 1.39.
As for A22G U39C, the self-cleavage was 1.67.
To A22U A111G belongs 0.02; to G20A A66G, 1.21.
The figure for G21A A51G is 1.66; for G21A U38A it is 1.28.
The figure for G20A A91U is 2.07; for U19A U120G it is 1.35; for A22U U49A it is 1.78.
As to A22U A91G, the self-cleavage is 0.68.
As for U19C G93U, the self-cleavage was 1.5.
The figure for A22U A69U is 2.67; for A22U A69C it is 0.47; for A22U U72C it is 0.04.
Turning to A22U U72A, the self-cleavage worked out at 0.21.
Take G20U A47G: the self-cleavage was 1.08.
For the variant U19C G44A, the self-cleavage worked out at 0.78.
Regarding A22U A23G, the self-cleavage stood at 1.74.
The figure for U19C U38C is 1.22; for U19C C85G it is 1.02.
Take G21A G138A: the self-cleavage came to 0.84.
To U19C A78G belongs 0.29; to U19C A135G, 2.08.
Turning to U19C A135U, the self-cleavage is 1.5.
Take A22C A96G: the self-cleavage was found to be 2.53.
With U19G A69U, the self-cleavage is 0.96.
The figure for U19C U70C is 0.7; for U19C U70A it is 1.06.
To U19C U37C belongs 1.5; to A22C U131G, 0.94; to A22G G53C, 1.81.
Consider U19C A82U, for which the self-cleavage came to 0.21.
Regarding A22U A56G, the self-cleavage was 1.16.
To G20A A64G belongs 1.49; to A22U A89G, 1.31.
The figure for U19C U49C is 1.6; for U19C U49A it is 1.38.
To A22U A36G belongs 1.48; to A22U A36U, 1.53.
As to G21A U122G, the self-cleavage was determined as 2.56.
To G21U A90G belongs 1.16; to U19C A55U, 1.69; to U19C A55C, 1.89.
Consider A22U A60G, for which the self-cleavage turned out to be 1.29.
To U19C U39A belongs 2.15.
In the case of U19C U26C, the self-cleavage worked out at 1.24.
The figure for G20U U72C is 0.14; for G21A A67G it is 1.78; for U19C G83A it is 1.68.
For the variant G21A A125G, the self-cleavage was 0.73.
To G21A A33U belongs 2.16.
As to A22G A24G, the self-cleavage came to 1.
The figure for A22G A24U is 1.27; for U19C A92G it is 1.53.
